What was measured:
[1] = target: the molecule itself; assay: dynamic light scattering + other: static light scattering; PBP3_(88–165), batch mode, 20°C, buffer and concentration as for crystallogenesis (7.5 mg/ml, 0.15 M NaCl, 0.1 M Tris pH 8, 1 mM EDTA)
[2] = target: the molecule itself; assay: dynamic light scattering + other: static light scattering; PBP3_(57–577), batch mode, 20°C, buffer and concentration as for crystallogenesis (18 mg/ml, 0.5 M NaCl, 20 mM Tris pH 8)

B1: PBP3_(88–165), Val88-Ser165 subdomain of Escherichia coli PBP3, strep-tag removed (domain or fragment, UniProt P0AD68 88-165, looked up)
chain: VKAIWADPKEVHDAGGISVGDRWKALANALNIPLDQLSARINANPKGRFIYLARQVNPDMADYIKKLKLPGIHLREES
notes: The tag is said to be removed before crystallization; Residues of the vector may remain at the N-terminus after the tag was removed; A selenomethionine form was used for phasing only; also called PBP3 Val88-Ser165 subdomain; source: E. coli C41(DE3) with pDML2042 (pET-52b(+)), purified (Strep-Tactin column), strep-tag removed; not shown: Strep-tag, N-terminal, cleaved
stoichiometry N [1]: 2

B2: PBP3_(57–577), soluble periplasmic form of Escherichia coli penicillin-binding protein 3 (domain or fragment, UniProt P0AD68 57-577, looked up)
chain: GDMRSLRVQQVSTSRGMITDRSGRPLAVSVPVKAIWADPKEVHDAGGISVGDRWKALANALNIPLDQLSARINANPKGRFIYLARQVNPDMADYIKKLKLPGIHLREESRRYYPSGEVTAHLIGFTNVDSQGIEGVEKSFDKWLTGQPGERIVRKDRYGRVIEDISSTDSQAAHNLALSIDERLQALVYRELNNAVAFNKAESGSAVLVDVNTGEVLAMANSPSYNPNNLSGTPKEAMRNRTITDVFEPGSTVKPMVVMTALQRGVVRENSVLNTIPYRINGHEIKDVARYSELTLTGVLQKSSNVGVSKLALAMPSSALVDTYSRFGLGKATNLGLVGERSGLYPQKQRWSDIERATFSFGYGLMVTPLQLARVYATIGSYGIYRPLSITKVDPPVPGERVFPESIVRTVVHMMESVALPGGGGVKAAIKGYRIAIKTGTAKKVGPDGRYINKYIAYTAGVAPASQPRFALVVVINDPQAGKYYGGAVSAPVFGAIMGGVLRTMNIEPDALTTGDKNEFV
notes: the ftsI gene encodes 588 residues and 11 C-terminal residues are removed by proteolytic cleavage; No tag is mentioned; also called FtsI; periplasmic domain of PBP3; source: E. coli W3110M (plasmid pDML232, with pDML237 for SecB), purified (S-Sepharose twice, Superdex 200)
stoichiometry N [2]: 2

From PMC4038516, “Crystal Structure of Penicillin-Binding Protein 3 (PBP3) from Escherichia coli” (PLoS ONE, 2014)
